For assay [1], the target named is T1, HGFRECD-c-Myc (extracellular domain of HGFR with c-Myc tag, expressed in HEK293T cells) (UniProt P08581 25-932).
T1 construct: extracellular domain; also called HGFRECD-c-Myc-tag; not shown: c-Myc tag
Put plainly: co-IP from transfected HEK293T cells (FIG. 1F).

Assay [2] has as its system cancer cells. To be noted: comparison in the description; previous work; cited from earlier work.
Assay [3] has as its target T2, EpCAM (Homo sapiens, UniProt P16422).
T2 sequence (P16422 24-314): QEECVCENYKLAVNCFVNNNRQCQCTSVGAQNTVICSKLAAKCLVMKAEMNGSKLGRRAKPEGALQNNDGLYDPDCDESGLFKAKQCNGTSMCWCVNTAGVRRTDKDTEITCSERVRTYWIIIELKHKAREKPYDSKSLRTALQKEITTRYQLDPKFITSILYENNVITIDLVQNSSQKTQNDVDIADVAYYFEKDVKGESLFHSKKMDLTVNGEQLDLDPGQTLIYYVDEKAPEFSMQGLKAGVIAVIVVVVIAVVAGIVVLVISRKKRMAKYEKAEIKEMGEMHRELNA
To be noted: other anti-EpCAM antibodies, comparison in the description; cited from earlier work.

The target in assay [4] is T1, HGFRECD-c-Myc (extracellular domain of …). The assay can be described thus: co-IP with anti-c-Myc from transfected HEK293T cells (FIG. 1G).
For assay [5], the system named is HGFR signaling. The assay can be described thus: Western blotting of phosphorylated HGFR, AKT, ERK, FAK in HCT116 cells. It is filed as cell-based, human. To be noted: HCT116; 10 μg/ml 16 h, then EpEX-His 50 nM 15 min; FIG. 7D. Here is the method: FIGS. 2A to 2K. EpEX promotes tumor progression via HGFR signaling. (FIG. 2A) WT or EpCAM knockout (KO) HCT116 and HT29 cells treated with HGF (0.5 nM) for 15 min. The phosphorylation of HGFR, AKT, and ERK was examined by Western blotting. (FIG. 2B) WT or KO HCT116 and HT29 cells were treated with HGF (0.5 nM) with 2% FBS for the indicated times. Cell growth was examined by the WST-1 assay. (FIG. 2C) Starved HCT116 cells were treated with HGFR inhibitor SU11274 (SU, 10 μM) for 1 h then treated with 50 nM of EpEX-His for 15 min. The levels of phosphorylated HGFR, EGFR, AKT, and ERK were examined by Western blotting. HCT116 and HT29 cells were treated with 50 nM EpEX and SU (10 μM). (FIG. 2D) Cell growth was examined by WST-1 assay after treatment for indicated time. (FIG. 2E) HCT116 cells were treated with shLuc or HGFR shRNA then treated with 50 nM of EpEX-His for 15 min. The levels of phosphorylated HGFR, EGFR, ERK, and AKT were examined in HGFR knockdown HCT116 cells by Western blotting. (FIG. 2F) The levels of phosphorylated ADAM17 and presenilin 2 were examined by Western blotting. (FIG. 2G) Active β-catenin nuclear translocation was assay by using Western blotting. (H) HCT116 cells were treated with shLuc or HGFR shRNA then treated with 50 nM of EpEX-His for indicated times. Cell growth was examined by the WST-1 assay. (FIG. 2I) HCT116 cells after shLuc and shHGFR treatment were treated with 50 nM of EpEX-His with 2% FBS for 7 days. Colony formation was examined by crystal violet staining.
FIGS. 6A to 6J. EpAb2-6 inhibits EpCAM and HGFR signaling and promotes active β-catenin and Snail protein degradation via activating GSK3β. (FIG. 6A) HCT116 cells were treated with 10 μg/ml control IgG (normal mouse IgG, NMIgG) or mouse EpAb2-6 (EpAb2-6) for 16 h, followed by treatment with EpEX-His (50 nM) for 15 min. Levels of phosphorylated HGFR, AKT, FAK, GSK3β, ERK, ADAM17, and presenilin 2 were examined by Western blotting. (FIG. 6B) HCT116 cells were treated with 10 μg/ml control IgG or mouse EpAb2-6 for 16 h, followed by treatment without or with HGF (0.5 nM) for 15 min. Levels of phosphorylated HGFR, AKT, and ERK were examined by Western blotting. HCT116 cells were treated with mouse EpAb2-6 (10 μg/ml) and HGF (0.5 nM). (FIG. 6C) Cell migration was examined by the wound healing assay at the indicated times. (FIG. 6D) Cell invasion was assessed by a Transwell assay with matrigel after 24 h. (FIG. 6E) HCT116 cells were treated with NMIgG or EpAb2-6 for 6 h and then immunoprecipitated with anti-EpCAM (IP: EpCAM) or anti-HGFR (IP: HGFR) antibodies, followed by Western blotting. (FIG. 6F) EpEX-His (2 μg/ml) co-treated with 1 μg IgG or EpAb2-6 was added to HGFR-Fc-coated (1 μg/ml) ELISA plates and detected by TMB colorimetric peroxidase assay. (FIG. 6G) EMT associated protein levels were detected by Western blotting in HCT116 cells treated with NMIgG or EpAb2-6 for 24 h. (FIG. 6H) Protein expression was analyzed by Western blotting in HCT116 cells after treatment with EpAb2-6 and 2 μM GSK3β inhibitor (BIO) for 24 h. Quantification of the normalized protein expression in the bottom panel. (FIG. 6I) HCT116 cells were treated with 10 μM MG132 and EpAb2-6 for 6 h before cell collection and subsequent Western blotting. (FIG. 6J) Stability of Snail protein in HCT116 cells treated with NMIgG or EpAb2-6. Cells were treated with cyclohexamide (CHX) 100 μg/ml at the indicated intervals and subjected to Western blotting.
FIGS. 7A to 7G. EpAb2-6 binds EpEX and induces apoptosis by F(ab′)2 and inhibits regulated intramembrane proteolysis (RIP) activation and HGFR signaling. (FIG. 7A) Binding affinity of IgG EpAb2-6 (mouse) and F(ab′)2 to EpEX-His (1 μg/ml) coated overnight was checked using ELISA (OD450). (FIG. 7B) HCT116 cells were treated with 100 μg/ml control IgG, Fc, or F(ab′)2 of EpAb2-6 for 24 h. The apoptotic and necrotic cells were quantified by fluorescein annexin V-FITC/PI double labeling. […]
On the technique in general: A western blot detects proteins with antibodies after separation by electrophoresis.

For assay [6], the system named is HT29 cells. The assay can be described thus: Apoptosis assay, annexin V-FITC/PI double labeling, HT29. It is filed as cell-based, human. To be noted: 10 μg/ml 24 h, FIG. 7C. Here is the method:
(§1) FIGS. 7A to 7G. EpAb2-6 binds EpEX and induces apoptosis by F(ab′)2 and inhibits regulated intramembrane proteolysis (RIP) activation and HGFR signaling. (FIG. 7A) Binding affinity of IgG EpAb2-6 (mouse) and F(ab′)2 to EpEX-His (1 μg/ml) coated overnight was checked using ELISA (OD450). (FIG. 7B) HCT116 cells were treated with 100 μg/ml control IgG, Fc, or F(ab′)2 of EpAb2-6 for 24 h. The apoptotic and necrotic cells were quantified by fluorescein annexin V-FITC/PI double labeling. (FIG. 7C) HCT116 and HT29 cells were treated with 10 μg/ml control IgG, MT201, humanized EpAb2-6 (hEpAb2-6) or mouse hybridoma EbAb2-6 (mEpAb2-6) for 24 h. The apoptotic and necrotic cells were quantified by fluorescein annexin V-FITC/PI double labeling. (FIG. 7D) HCT116 cells were treated with 10 μg/ml control IgG, MT201, hEpAb2-6 or mEpAb2-6 for 16 h, followed by treatment with EpEX-His (50 nM) for 15 min. Levels of phosphorylated HGFR, AKT, and ERK, and (FIG. 7E) RIP proteins ADAM17 and presenilin 2 were examined by Western blotting. Anti-EpCAM antibody and crizotinib coordinately induces apoptosis in colon cancer cells. (FIG. 7F) HCT116 and HT29 cells were treated with 10 μg/ml NMIgG or EpAb2-6 and 4 μM HGFR inhibitor crizotinib for 24 h. The apoptotic and necrotic cells were quantified by fluorescein annexin V-FITC/PI double labeling. (FIG. 7G) HCT116 and HT29 cells were treated with 10 μg/ml NMIgG or EpAb2-6 and 10 μM HGFR inhibitor crizotinib. Cell invasion was assessed by a Transwell assay with matrigel after 24 h.
(§2) Cells were seeded and treated with 10 μg/ml mAb or inhibitor for 6 h; an unrelated mouse myeloma immunoglobulin used at appropriate dilution served as the IgG2a (Invitrogen #02-6200) isotype control. Apoptotic cells were detected using Annexin V-FITC and PI, and were analyzed using a flow cytometer (BD Immmunocytometry Systems). Early apoptosis was measured with the Annexin V-FITC Apoptosis Detection kit II (BD Pharmingen). Late apoptotic nuclei were detected with propidium iodide (PI) staining.

In assay [7] the test system is HCT116 cells. The assay can be described thus: Apoptosis assay, annexin V-FITC/PI double labeling, HCT116. It counts as cell-based, human. To be noted: 10 μg/ml 24 h, FIG. 7C. Here is the method: as §1, §2
For assay [8], the system named is ADAM17 and presenilin 2. Put plainly: Western blotting of RIP proteins ADAM17 and presenilin 2 in HCT116 cells. It counts as cell-based, human. To be noted: 10 μg/ml 16 h, then EpEX-His 50 nM 15 min, FIG. 7E. Here is the method: as §1, with “(FIG. 7G) HCT116 and HT29 cells were treated with 10 μg/ml NMIgG or EpAb2-6 and 10 μM HGFR inhibitor crizotinib.” left out
Whole cell extracts were prepared with RIPA buffer (50 mM Tris-HCl pH7.4, 1% NP-40, 0.5% Sodium deoxycholate, 0.1% SDS, 150 mM NaCl, 2 mM EDTA, 50 mM NaF). Protein concentrations of the cell lysates were determined by the Bradford assay. […]
Appropriate horseradish peroxidase-associated secondary antibodies (Millipore) were applied and the membranes were incubated at room temperature (RT) for 1 h. The protein bands were subsequently visualized with chemiluminescence reagents (Millipore) and detected on a BioSpectrum 600 Imaging system (UVP). The protein level was quantified from band intensity using Gel-Pro analyzer 3.1 (Media Cybernetics).

Entries after “also recorded” stand apart in the source; their conditions may differ.

T1 sequence (P08581 25-932): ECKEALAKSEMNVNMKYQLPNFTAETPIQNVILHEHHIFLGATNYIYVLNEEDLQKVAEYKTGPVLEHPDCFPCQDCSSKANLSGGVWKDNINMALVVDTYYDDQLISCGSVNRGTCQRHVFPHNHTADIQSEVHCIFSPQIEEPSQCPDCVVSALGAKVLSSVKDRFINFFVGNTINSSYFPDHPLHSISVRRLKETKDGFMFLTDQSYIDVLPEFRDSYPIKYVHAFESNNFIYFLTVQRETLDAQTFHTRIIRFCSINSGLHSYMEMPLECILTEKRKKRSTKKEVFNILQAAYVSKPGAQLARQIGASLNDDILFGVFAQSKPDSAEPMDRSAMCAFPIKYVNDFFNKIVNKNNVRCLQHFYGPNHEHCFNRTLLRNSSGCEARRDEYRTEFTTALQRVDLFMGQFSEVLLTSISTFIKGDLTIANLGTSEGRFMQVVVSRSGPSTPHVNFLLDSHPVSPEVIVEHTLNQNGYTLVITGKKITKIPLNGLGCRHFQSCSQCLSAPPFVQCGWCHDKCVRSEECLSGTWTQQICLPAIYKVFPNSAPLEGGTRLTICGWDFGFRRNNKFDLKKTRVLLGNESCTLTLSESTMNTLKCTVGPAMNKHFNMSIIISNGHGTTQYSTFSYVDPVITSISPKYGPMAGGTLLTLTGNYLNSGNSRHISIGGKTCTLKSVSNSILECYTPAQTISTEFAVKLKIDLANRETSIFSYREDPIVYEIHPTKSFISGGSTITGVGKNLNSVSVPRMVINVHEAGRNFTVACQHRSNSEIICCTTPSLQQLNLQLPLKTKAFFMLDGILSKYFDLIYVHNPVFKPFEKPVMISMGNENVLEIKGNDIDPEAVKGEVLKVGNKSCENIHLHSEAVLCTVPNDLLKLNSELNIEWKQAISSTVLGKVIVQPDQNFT

B1: EpCAMΔEGFI-V5 (other)
chain: QEESKLAAKCLVMKAEMNGSKLGRRAKPEGALQNNDGLYDPDCDESGLFKAKQCNGTSMCWCVNTAGVRRTDKDTEITCSERVRTYWIIIELKHKAREKPYDSKSLRTALQKEITTRYQLDPKFITSILYENNVITIDLVQNSSQKTQNDVDIADVAYYFEKDVKGESLFHSKKMDLTVNGEQLDLDPGQTLIYYVDEKAPEFSMQGLKAGVIAVIVVVVIAVVAGIVVLVISRKKRMAKYEKAEIKEMGEMHRELNA
notes: also called EGF like-domain deletion mutant EpCAM-V5; not shown: V5 tag
Turning to B1, the binding result in assay [1] is “binds”.

B2: edrecolomab: other antibody targeting only the EGF I domain of EpCAM (antibody, chains of the INN, looked up, V domains shown)
VH: QVQLQQSGAELVRPGTSVKVSCKASGYAFTNYLIEWVKQRPGQGLEWIGVINPGSGGTNYNEKFKGKATLTADKSSSTAYMQLSSLTSDDSAVYFCARDGPWFAYWGQGTLVTVSA
VL: NIVMTQSPKSMSMSVGERVTLTCKASENVVTYVSWYQQKPEQSPKLLIYGASNRYTGVPDRFTGSGSATDFTLTISSVQAEDLADYHCGQGYSYPYTFGGGTKLEIK
Regarding B2, the “inducing apoptosis of cancer cells” value in assay [2] was “failing to”. In assay [3], the EpCAM domains bound entry is listed as “target only the well-described EGF I domain of EpCAM; also recorded: binding to domain I only”.

B3: EpCAMΔEGFII-V5 (other)
chain: QEECVCENYKLAVNCFVNNNRQCQCTSVGAQNTVICSKLAAKSERVRTYWIIIELKHKAREKPYDSKSLRTALQKEITTRYQLDPKFITSILYENNVITIDLVQNSSQKTQNDVDIADVAYYFEKDVKGESLFHSKKMDLTVNGEQLDLDPGQTLIYYVDEKAPEFSMQGLKAGVIAVIVVVVIAVVAGIVVLVISRKKRMAKYEKAEIKEMGEMHRELNA
notes: as for B1
As for B3, the binding result in assay [1] is reported as “binds”.

B4: EpEXΔEGFI-His (ligand)
chain: QEESKLAAKCLVMKAEMNGSKLGRRAKPEGALQNNDGLYDPDCDESGLFKAKQCNGTSMCWCVNTAGVRRTDKDTEITCSERVRTYWIIIELKHKAREKPYDSKSLRTALQKEITTRYQLDPKFITSILYENNVITIDLVQNSSQKTQNDVDIADVAYYFEKDVKGESLFHSKKMDLTVNGEQLDLDPGQTLIYYVDEKAPEFSMQGLK
notes: EpEX lacking aa 27-59; also called EGF like-domain deletion mutant EpEX-His; soluble EpEX mutant protein; not shown: His tag
For B4, the binding result in assay [4] is recorded as “binds”.

B5: hEpAb2-6: humanized EpAb2-6 (antibody, V domains shown)
VH: VKLQESGPELKKPGETVKISCKASGYTFTDYSMHWVKQAPGKGLKWMGWINTETGEPTYADDFKGRFAFSLETSASTAYLQINNLKNEDTATYFCARTAVYWGQGTTVTVSS
VL: DIQMTQSPSSLSASLGERVSLTCRASQEISVSLSWLQQEPDGTIKRLIYATSTLDSGVPKRFSGSRSGSDYSLTISSLESEDFVDYYCLQYASYPWTFGGGTKLEIKRADAAPTVS
For B5, in assay [5], the “phosphorylation of HGFR, AKT, and ERK” value was “inhibited phosphorylation of HGFR, AKT, and ERK”. Further, the apoptosis result in assay [6] and in assay [7] was “inducing apoptosis” throughout. The “levels of phosphorylated ADAM17 and presenilin 2” value in assay [8] is “decreased”.

B6: EpEXΔEGFII-His (ligand)
chain: QEECVCENYKLAVNCFVNNNRQCQCTSVGAQNTVICSKLAAKSERVRTYWIIIELKHKAREKPYDSKSLRTALQKEITTRYQLDPKFITSILYENNVITIDLVQNSSQKTQNDVDIADVAYYFEKDVKGESLFHSKKMDLTVNGEQLDLDPGQTLIYYVDEKAPEFSMQGLK
notes: EpEX lacking aa 66-135; also called EGF like-domain deletion mutant EpEX-His; soluble EpEX mutant protein; not shown: His tag
Take B6: the binding result in assay [4] was “binds”.

Values taken from patent US20250269018A1, “COMBINED CANCER THERAPY WITH AN EPITHELIAL CELL ADHESION MOLECULE (EPCAM) INHIBITOR AND A HEPATOCYTE GROWTH FACTOR RECEPTOR (HGFR) INHIBITOR” (ACADEMIA SINICA, priority 2021, published 2025).
